Measured values as given in IntAct's records for PubMed 19918049.

B1: Serine/threonine-protein kinase haspin (Homo sapiens), Q8TF76-1 (parent)
chain: MAASLPGPGSRLFRTYGAADGRRQRRPGREAAQWFPPQDRRRFFNSSGSSDASIGDPSQSDDPDDPDDPDFPGSPVRRRRRRPGGRVPKDRPSLTVTPKRWKLRARPSLTVTPRRLGLRARPPQKCSTPCGPLRLPPFPSRDSGRLSPDLSVCGQPRDGDELGISASLFSSLASPCPGSPTPRDSVISIGTSACLVAASAVPSGLHLPEVSLDRASLPCSQEEATGGAKDTRMVHQTRASLRSVLFGLMNSGTPEDSEFRADGKNMRESCCKRKLVVGNGPEGPGLSSTGKRRATGQDSCQERGLQEAVRREHQEASVPKGRIVPRGIDRLERTRSSRKSKHQEATETSLLHSHRFKKGQKLGKDSFPTQDLTPLQNVCFWTKTRASFSFHKKKIVTDVSEVCSIYTTATSLSGSLLSECSNRPVMNRTSGAPSSWHSSSMYLLSPLNTLSISNKKASDAEKVYGECSQKGPVPFSHCLPTEKLQRCEKIGEGVFGEVFQTIADHTPVAIKIIAIEGPDLVNGSHQKTFEEILPEIIISKELSLLSGEVCNRTEGFIGLNSVHCVQGSYPPLLLKAWDHYNSTKGSANDRPDFFKDDQLFIVLEFEFGGIDLEQMRTKLSSLATAKSILHQLTASLAVAEASLRFEHRDLHWGNVLLKKTSLKKLHYTLNGKSSTIPSCGLQVSIIDYTLSRLERDGIVVFCDVSMDEDLFTGDGDYQFDIYRLMKKENNNRWGEYHPYSNVLWLHYLTDKMLKQMTFKTKCNTPAMKQIKRKIQEFHRTMLNFSSATDLLCQHSLFK

Variants of: B1
Details: with h32_mouse H3c13, P84228

Row | Variant | effect of a mutation on the interaction
1 | D709N | decreasing interaction
2 | G713F | decreasing interaction

The remaining lines, values ahead:

Row | effect of a mutation on the interaction | Variant
3 | decreasing interaction | H651A
4 | decreasing interaction | D707L
5 | decreasing interaction | E492A
